Results from US20230392135, “ENGINEERED CAS ENDONUCLEASE VARIANTS FOR IMPROVED GENOME EDITING” (PIONEER HI-BRED INTERNATIONAL, INC., published 2023).
Numbering of substitutions follows the chain as printed.

T1: Cas-alpha 10 A40G+E81G (Syntrophomonas palmitatica, UniProt P0DW62 SEQ:1-497)
T1 chain: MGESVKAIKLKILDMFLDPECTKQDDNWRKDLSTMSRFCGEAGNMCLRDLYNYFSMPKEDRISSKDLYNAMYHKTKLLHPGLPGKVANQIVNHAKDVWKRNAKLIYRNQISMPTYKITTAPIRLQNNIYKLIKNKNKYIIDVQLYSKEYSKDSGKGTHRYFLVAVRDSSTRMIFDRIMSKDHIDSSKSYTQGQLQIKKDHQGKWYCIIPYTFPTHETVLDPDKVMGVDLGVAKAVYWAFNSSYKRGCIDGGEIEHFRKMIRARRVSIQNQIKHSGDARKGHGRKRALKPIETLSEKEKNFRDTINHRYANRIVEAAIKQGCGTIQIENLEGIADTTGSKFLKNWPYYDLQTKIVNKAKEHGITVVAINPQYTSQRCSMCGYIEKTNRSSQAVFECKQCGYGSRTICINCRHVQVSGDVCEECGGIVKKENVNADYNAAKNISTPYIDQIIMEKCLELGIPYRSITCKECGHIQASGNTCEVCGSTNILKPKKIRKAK

T2: Cas-alpha 10 A40G+E81G+T335R (Syntrophomonas palmitatica, UniProt P0DW62 SEQ:1-497)
T2 chain: T1 chain with T335R

T3: Cas-alpha 10 E81G (Syntrophomonas palmitatica, UniProt P0DW62 SEQ:1-497)
T3 chain: T1 chain with G40A

T4: Cas-alpha 10 A40G (Syntrophomonas palmitatica, UniProt P0DW62 SEQ:1-497)
T4 chain: T1 chain with G81E

B1: sgRNA IR ; IR target (ssRNA ; dsDNA)
RNA: AUUUACUCUGUUUCGCGCGCCAGGGCAGUUAGGUGCCCUAAAAGAGCGAAGUGGCCGAAAGGAAAGGCUAACGCUUCUCUAACGCUACGGCGACCUUGGCGAAAUGCCAUCAAUACCACGCGGCCCGAAAGGGUUCGCGCGAAACUGAGUAAUGAAAGUCGCAUCUUGCGUAAGCGCGUGGAUUGAAACCACAGGGAGGGAGCAAACAA
DNA 1: CACAGGGAGGGAGCAAACAA
DNA 2: TTGTTTGCTCCCTCCCTGTG
B2: sgRNA1, ade2 target 2, 20 nt spacer ; ade2 target 2 (ssRNA ; dsDNA)
RNA: AUUUACUCUGUUUCGCGCGCCAGGGCAGUUAGGUGCCCUAAAAGAGCGAAGUGGCCGAAAGGAAAGGCUAACGCUUCUCUAACGCUACGGCGACCUUGGCGAAAUGCCAUCAAUACCACGCGGCCCGAAAGGGUUCGCGCGAAACUGAGUAAUGAAAGUCGCAUCUUGCGUAAGCGCGUGGAUUGAAACUUUAGUGUAGGAACAUCAAC
DNA 1: TTTAGTGTAGGAACATCAAC
DNA 2: GTTGATGTTCCTACACTAAA

Columns and labels:
Conditions in all cases: tags: SV40 NLS; chain copies: 2
[1] = molecular target: T1, Cas-alpha 10 A40G+E81G; assay: cell_activity; PAM 5'-TTC; maize, 37 C
[2] = molecular target: T2, Cas-alpha 10 A40G+E81G+T335R; assay: cell_activity; PAM 5'-TTC; maize, 37 C
[3] = molecular target: T3, Cas-alpha 10 E81G; assay: cell_activity; PAM 5'-TTC; yeast, 45 C
[4] = molecular target: T4, Cas-alpha 10 A40G; assay: cell_activity; PAM 5'-TTC; yeast, 45 C
[5] = molecular target: T1, Cas-alpha 10 A40G+E81G; assay: cell_activity; PAM 5'-TTC; yeast, 45 C; >10-fold sectored colonies at 37 C
Procedure: The cells were then resuspended in 1 ml of EZ 2 solution and aliquoted and either stored at −70° C. or used in the next step. Transformation was performed next by adding 0.5-1 μg (in less than 5 μl) of 2 micron yeast plasmid DNA to 50 μl of competent cells. Optionally, double-stranded DNA repair template with homology flanking the expected Cas-alpha double-strand break site was also included (0.5 μl at 50 μM). After gently mixing in the DNA, 500 μl of EZ 3 solution was added. Next, cells were incubated at 30° C. for 60-90 min. flicking or vortexing the cells 3-4 times over the duration of the incubation. After transformation, cells were grown-out in YPD broth for ˜3 hours, pelleted, washed once with 1 ml of sterile water, resuspended in 1 ml of sterile water, and then ˜200 μl plated onto selective media (for example but not limited to 6.7 g/L yeast nitrogen base without amino acids (Becton Dickinson), 20 g/L glucose (Phytotechnology Labs), 1.92 g/L yeast histidine dropout media (MP Biomedicals) and 20 g/L Bacto Agar (Becton Dickinson)). To determine the culture conditions optimal for activity, cells were incubated at 30° C. until colonies formed, or at a range of temperatures (typically 37° C. and 45° C.) overnight and then placed back at 30° C. until colony growth was visible. […]

Binder | binding signal [1] [fold vs wild type indels] | binding signal [2] [fold vs wild type indels] | binding signal [3] | binding signal [4] | binding signal [5]
B1 | ~5 | ~17 | – | – | –
B2 | – | – | ~2 fold vs wild type (red colonies, score 2) | ~2 fold vs wild type (red colonies, score 2) | ~3 fold vs wild type (red colonies, score 2)
